Assay [1] addresses Zika virus NS5 Y25A/K28S/K29A variant, full length, C-terminal 6xHis tag (Zika virus (Suriname human isolate Z1106033)).
For assay [2], the target named is Zika virus NS5, full length, wild type (Suriname ZIKV human isolate Z1106033), C-terminal 6xHis tag (Zika virus (Suriname human isolate Z1106033)). The experiment in a line: AUC; sedimentation velocity, 20 °C, 43,000 rpm, 0.5 mg/ml protein; 50 mM HEPES pH 7.0, 500 mM NaCl, 5% glycerol, 0.4 mM DTT.
The target is the same in assay [3]. The experiment in a line: SEC-MALS; Superdex 200 10/300 GL; 50 mM MES pH 6.0, 500 mM NaCl, 10% glycerol, 5 mM DTT; monomer-dimer. (Size exclusion chromatography separates by hydrodynamic size, large species first.)
Assay [4] shares this target. The experiment in a line: SEC-MALS; Superdex 200 10/300 GL; 50 mM HEPES pH 7.0, 500 mM NaCl, 10% glycerol, 5 mM DTT; monomer-dimer.
Assay [5] has the same target. As to the kind of experiment: SAXS; 6 mg/ml NS5 (highest concentration); 50 mM MES pH 6.0, 500 mM NaCl, 10% glycerol, 5 mM DTT; 10 °C.

Two substances from PMC6469808 can be followed below.

As for “Zika virus NS5 Y25A/K28S/K29A variant, full length, C-terminal 6xHis tag (natural protein)”, in assay [1], the RNA primer extension (polymerase elongation) activity at 900, 180, 18, 9 nM enzyme, variant against wild type NS5 came to 3 fold.

The stoichiometry N is a count of units in the complex or per binding partner. For the substance “Zika virus NS5, full length, wild type (Suriname ZIKV human isolate Z1106033), C-terminal 6xHis tag (from UniProt A0A024B7W1 2521-3423) (natural protein)”, in assay [2], the percent abundance of the dimer species came out at 12%, the percent of the sample as oligomer came to 5.1% and the stoichiometry N came out at 2. In assay [3], this substance had a percent of the sample mass in the dimer peak of 4% and a stoichiometry N of 2. In assay [4], this substance showed a percent abundance of the dimer peak of 10.4% and a stoichiometry N of 2. In addition, in assay [5], the stoichiometry N was determined as 2.
